From PMC9482650, “Quantitative fragmentomics allow affinity mapping of interactomes” (Nature Communications, 2022)
Substitutions are numbered along the chain they refer to. Blank lines part the entries; values can stand above or below the binder they belong to.

Assays:
Experiment in all cases: holdup assay
Parameters in all cases: key: below the threshold = too weak to quantify, mostly under pKd 3.1 to 4
[1] = molecular target: T1, APBA1_1, Q02410
T1 sequence (Q02410 651-752, limits assumed, looked up): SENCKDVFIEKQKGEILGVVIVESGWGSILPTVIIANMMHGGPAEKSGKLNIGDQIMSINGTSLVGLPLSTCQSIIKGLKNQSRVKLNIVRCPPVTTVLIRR

[2] = molecular target: T2, APBA1_2, Q02410
T2 sequence (Q02410 742-832, limits assumed, looked up): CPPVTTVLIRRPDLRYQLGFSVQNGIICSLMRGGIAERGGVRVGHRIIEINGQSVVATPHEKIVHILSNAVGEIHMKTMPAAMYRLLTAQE

[3] = molecular target: T3, APBA2_1, Q99767
T3 sequence (Q99767 563-664, limits assumed, looked up): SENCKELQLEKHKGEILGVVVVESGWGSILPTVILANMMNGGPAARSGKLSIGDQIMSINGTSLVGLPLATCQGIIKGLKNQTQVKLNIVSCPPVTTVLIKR

[4] = molecular target: T4, APBA2_2, Q99767
T4 sequence (Q99767 654-744, limits assumed, looked up): T2 sequence (Q02410 742-832, limits assumed, looked up) with R10K, R15K, P59A, H65Q, I66A, A70S, Y84F, A89G

[5] = molecular target: DLG4_1, P78352
Sequence of DLG4_1, P78352 (P78352 62-152): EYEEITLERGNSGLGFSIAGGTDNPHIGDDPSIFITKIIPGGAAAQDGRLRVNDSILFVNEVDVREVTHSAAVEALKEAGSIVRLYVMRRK

[6] = molecular target: T5, DVL3, Q92997
T5 sequence (Q92997 244-331, limits assumed, looked up): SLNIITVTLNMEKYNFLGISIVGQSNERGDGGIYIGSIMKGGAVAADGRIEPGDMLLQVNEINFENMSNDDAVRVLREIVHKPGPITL

[7] = molecular target: FRMPD2_3, Q68DX3
Sequence of FRMPD2_3, Q68DX3 (Q68DX3 1073-1166): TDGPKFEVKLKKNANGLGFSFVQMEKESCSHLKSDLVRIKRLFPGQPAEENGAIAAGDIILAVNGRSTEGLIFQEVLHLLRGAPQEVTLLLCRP

[8] = molecular target: GRID2IP_1, A4D2P6
Sequence of GRID2IP_1, A4D2P6 (A4D2P6 1-87): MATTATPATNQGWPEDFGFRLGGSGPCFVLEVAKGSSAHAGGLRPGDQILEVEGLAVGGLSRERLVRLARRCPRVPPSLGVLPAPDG

[9] = molecular target: T6, GRIP1_4, Q9Y3R0
T6 sequence (Q9Y3R0 467-571, limits assumed, looked up): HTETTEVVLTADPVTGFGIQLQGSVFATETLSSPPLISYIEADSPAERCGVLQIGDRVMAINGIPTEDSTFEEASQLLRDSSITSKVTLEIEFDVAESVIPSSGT

[10] = molecular target: GRIP2_4, Q9C0E4
Sequence of GRIP2_4, Q9C0E4 (Q9C0E4 446-548): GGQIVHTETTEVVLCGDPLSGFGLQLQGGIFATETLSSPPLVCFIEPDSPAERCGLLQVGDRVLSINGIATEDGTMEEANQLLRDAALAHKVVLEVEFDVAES

[11] = molecular target: T7, HTRA3, P83110
T7 sequence (P83110 354-453, limits assumed, looked up): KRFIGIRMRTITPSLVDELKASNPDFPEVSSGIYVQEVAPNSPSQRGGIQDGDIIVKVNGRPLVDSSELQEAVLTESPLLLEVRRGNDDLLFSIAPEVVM

[12] = molecular target: Inadl_4, Q8NI35
Sequence of Inadl_4, Q8NI35 (Q8NI35 547-651): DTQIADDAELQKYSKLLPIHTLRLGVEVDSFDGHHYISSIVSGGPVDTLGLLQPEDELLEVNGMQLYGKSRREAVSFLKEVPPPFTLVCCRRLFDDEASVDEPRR

[13] = molecular target: T8, LIN7C, Q9NUP9
T8 sequence (Q9NUP9 88-185, limits assumed, looked up): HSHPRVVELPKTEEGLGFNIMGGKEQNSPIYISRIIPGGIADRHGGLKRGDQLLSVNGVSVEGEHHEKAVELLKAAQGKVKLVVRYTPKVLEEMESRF

[14] = molecular target: LNX1_2, Q8TBB1
Sequence of LNX1_2, Q8TBB1 (Q8TBB1 371-470): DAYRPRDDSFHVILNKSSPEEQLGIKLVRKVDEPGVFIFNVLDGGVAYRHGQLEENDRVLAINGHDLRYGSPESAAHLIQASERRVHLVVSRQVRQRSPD

[15] = molecular target: LNX1_3, Q8TBB1
Sequence of LNX1_3, Q8TBB1 (Q8TBB1 500-596): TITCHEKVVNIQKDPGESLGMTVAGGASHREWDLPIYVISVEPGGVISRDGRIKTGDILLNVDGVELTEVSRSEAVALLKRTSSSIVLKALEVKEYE

[16] = molecular target: T9, LNX2_2, Q8N448
T9 sequence (Q8N448 334-432, limits assumed, looked up): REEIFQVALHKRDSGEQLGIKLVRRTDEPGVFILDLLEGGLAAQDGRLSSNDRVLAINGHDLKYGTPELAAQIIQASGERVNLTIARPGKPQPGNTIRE

[17] = molecular target: T10, LNX2_3, Q8N448
T10 sequence (Q8N448 463-564, limits assumed, looked up): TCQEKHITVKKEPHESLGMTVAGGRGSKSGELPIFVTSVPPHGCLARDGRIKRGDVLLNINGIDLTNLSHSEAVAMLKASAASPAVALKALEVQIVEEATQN

[18] = molecular target: MAGI2_2, Q86UL8
Sequence of MAGI2_2, Q86UL8 (Q86UL8 410-522): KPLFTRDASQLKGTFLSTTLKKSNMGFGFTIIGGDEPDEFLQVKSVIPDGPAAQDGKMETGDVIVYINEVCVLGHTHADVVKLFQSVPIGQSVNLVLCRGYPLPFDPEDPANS

[19] = molecular target: T11, MPDZ_10, O75970
T11 sequence (O75970 1624-1722, limits assumed, looked up): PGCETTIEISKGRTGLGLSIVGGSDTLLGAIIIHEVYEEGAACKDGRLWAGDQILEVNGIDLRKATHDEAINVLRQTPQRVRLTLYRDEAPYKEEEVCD

[20] = molecular target: T12, NHERF3_3, Q5T2W1
T12 sequence (Q5T2W1 238-333, limits assumed, looked up): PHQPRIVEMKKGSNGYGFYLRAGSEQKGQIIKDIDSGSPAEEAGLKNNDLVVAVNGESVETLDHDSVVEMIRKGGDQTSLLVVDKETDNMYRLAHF

[21] = molecular target: NHERF4_2, Q86UT5
Sequence of NHERF4_2, Q86UT5 (Q86UT5 220-308): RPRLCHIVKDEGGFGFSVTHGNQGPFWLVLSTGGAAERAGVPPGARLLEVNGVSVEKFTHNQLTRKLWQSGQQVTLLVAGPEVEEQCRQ

[22] = molecular target: NHERF4_4, Q86UT5
Sequence of NHERF4_4, Q86UT5 (Q86UT5 464-550): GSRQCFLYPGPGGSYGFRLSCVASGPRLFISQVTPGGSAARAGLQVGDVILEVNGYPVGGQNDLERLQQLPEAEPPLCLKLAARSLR

[23] = molecular target: PDLIM1, O00151
Sequence of PDLIM1, O00151 (O00151 1-87): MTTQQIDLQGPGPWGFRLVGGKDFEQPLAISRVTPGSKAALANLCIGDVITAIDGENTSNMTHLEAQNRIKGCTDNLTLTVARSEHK

[24] = molecular target: SCRIB_1, Q14160
Sequence of SCRIB_1, Q14160 (Q14160 718-814): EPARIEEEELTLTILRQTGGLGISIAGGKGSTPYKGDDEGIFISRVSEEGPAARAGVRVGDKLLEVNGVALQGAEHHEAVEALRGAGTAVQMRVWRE

[25] = molecular target: T13, SNTA1, Q13424
T13 sequence (Q13424 82-180, limits assumed, looked up): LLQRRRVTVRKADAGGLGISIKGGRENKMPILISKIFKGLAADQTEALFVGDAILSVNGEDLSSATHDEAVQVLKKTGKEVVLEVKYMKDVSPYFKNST

[26] = modified: acetyl on K at position -1 from the C-terminal residue
[27] = modified: phospho on S at position -3 from the C-terminal residue
[28] = plain residues with an end cap or a label only (N-terminal biotin on a linker: ado-ado)

pKd [1, 26]: below the threshold | pKd [2, 26]: 4.26 | pKd [3, 26]: below the threshold | pKd [4, 26]: below the threshold | pKd [5, 26]: 3.98 | pKd [6, 26]: below the threshold | pKd [7, 26]: below the threshold | pKd [8, 26]: below the threshold | pKd [9, 26]: below the threshold | pKd [10, 26]: below the threshold | pKd [11, 26]: below the threshold | pKd [12, 26]: below the threshold | pKd [13, 26]: below the threshold | pKd [14, 26]: 4.18 | pKd [15, 26]: below the threshold | pKd [16, 26]: 5.03 | pKd [17, 26]: below the threshold | pKd [18, 26]: 3.77 | pKd [19, 26]: 4.18 | pKd [20, 26]: below the threshold | pKd [21, 26]: below the threshold | pKd [22, 26]: below the threshold | pKd [23, 26]: below the threshold | pKd [24, 26]: 5.23 | pKd [25, 26]: 4.71
Binder: DEDQHTQITKV [PTEN_Ac, P60484]

pKd [1, 27]: below the threshold | pKd [2, 27]: below the threshold | pKd [3, 27]: below the threshold | pKd [4, 27]: below the threshold | pKd [5, 27]: below the threshold | pKd [6, 27]: below the threshold | pKd [7, 27]: below the threshold | pKd [8, 27]: below the threshold | pKd [9, 27]: below the threshold | pKd [10, 27]: below the threshold | pKd [11, 27]: below the threshold | pKd [12, 27]: below the threshold | pKd [13, 27]: below the threshold | pKd [14, 27]: below the threshold | pKd [15, 27]: below the threshold | pKd [16, 27]: below the threshold | pKd [17, 27]: below the threshold | pKd [18, 27]: 3.57 | pKd [19, 27]: below the threshold | pKd [20, 27]: below the threshold | pKd [21, 27]: below the threshold | pKd [22, 27]: below the threshold | pKd [23, 27]: below the threshold | pKd [24, 27]: 4.07 | pKd [25, 27]: 4.4
Binder: RRVRKLPSTTL [RPS6KA1_-3P, Q15418]

pKd [1, 28]: below the threshold | pKd [2, 28]: below the threshold | pKd [3, 28]: below the threshold | pKd [4, 28]: below the threshold | pKd [5, 28]: below the threshold | pKd [6, 28]: below the threshold | pKd [7, 28]: below the threshold | pKd [8, 28]: below the threshold | pKd [9, 28]: below the threshold | pKd [10, 28]: below the threshold | pKd [11, 28]: below the threshold | pKd [12, 28]: below the threshold | pKd [13, 28]: 3.76 | pKd [14, 28]: below the threshold | pKd [15, 28]: below the threshold | pKd [16, 28]: below the threshold | pKd [17, 28]: below the threshold | pKd [18, 28]: below the threshold | pKd [19, 28]: below the threshold | pKd [20, 28]: below the threshold | pKd [21, 28]: below the threshold | pKd [22, 28]: below the threshold | pKd [23, 28]: below the threshold | pKd [24, 28]: below the threshold | pKd [25, 28]: below the threshold
Binder: FEEEAEEEVA [TUBB4B, P68371]
